Several values for one entry are separate records, joined by “and”; a condition that tells them apart may be missing. Equal entries are not always repeated.

For data set [1], the target named is ComEAGs (ComEA from Geobacillus stearothermophilus, codons 60-207) (Geobacillus stearothermophilus (ATCC 7953)). As to the kind of experiment: AUC; sedimentation velocity, ComEAGs at 31.3 μM (280 nm), fitted to a discrete monomer-dimer equilibrium model (genetic algorithm Monte Carlo); dimer to monomers; apparent; 20 °C, 10 mM Tris pH 8, 100 mM KCl.
The target is the same in data set [2]. Description: AUC; sedimentation velocity, ComEAGs at 157 μM, 20 °C, 10 mM Tris pH 8, 100 mM KCl, 60 krpm.
Data set [3] concerns the target ComEAGs-OD (oligomerization domain of ComEAGs alone, codons 60-122) (Geobacillus stearothermophilus (ATCC 7953)). As to the kind of experiment: AUC; sedimentation velocity, ComEAGs-OD at 12.7 μM, 37 krpm, 20 °C, 10 mM Tris pH 8, 100 mM KCl.
Data set [4] addresses T1, ComEAGs wild-type (Geobacillus stearothermophilus (ATCC …, UniProt A0A0K9HI54 60-207)).
T1 sequence: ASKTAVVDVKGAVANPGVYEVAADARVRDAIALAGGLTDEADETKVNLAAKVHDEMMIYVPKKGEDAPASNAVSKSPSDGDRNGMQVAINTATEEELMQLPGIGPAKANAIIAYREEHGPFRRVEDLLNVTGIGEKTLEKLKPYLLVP
Description: MW-AUC; 1.5 uM DNA, 10:1 protein:DNA; >90% DNA bound; ~7:1 complex, 8.1 S; MW-AUC: 10 mM Tris pH 8, 100 mM KCl, 20 C; EMSA: 10 mM Tris pH 8, 100 mM KCl, 2.5% glycerol, 0.5 mM EDTA, 1 mM MgCl2, room temperature 15 min, 8% native gel in. Particulars: protein: recombinant; blunt. In general terms: A gel shift assay detects complexes by their altered migration in electrophoresis.

Data set [5] concerns the molecule itself. As to the kind of experiment: AUC; sedimentation velocity of 31.3 uM ComEAGs, measured at 280 nm, 60 krpm, 20 °C, 10 mM Tris pH 8, 100 mM KCl; fitted to a discrete monomer-dimer reversibly self-associating model by genetic algorithm Monte Carlo analysis (96 iterations); dimer to monomers.
For data set [6], the target named is T1, ComEAGs wild-type. As to the kind of experiment: MW-AUC; 1.5 uM DNA, 5:1 and 10:1 protein:DNA; >90% DNA bound; ~3:1 complex, 3.9-4.0 S; MW-AUC: 10 mM Tris pH 8, 100 mM KCl, 20 C; EMSA: 10 mM Tris pH 8, 100 mM KCl, 2.5% glycerol, 0.5 mM EDTA, 1 mM MgCl2, room temperature 15 min, 8% native gel in. Particulars: protein: recombinant; blunt.
Data set [7] deals with the molecule itself. As to the kind of experiment: AUC; sedimentation velocity of ComEAGs-OD at 196 uM, 37 krpm, 20 °C, 10 mM Tris pH 8, 100 mM KCl; molar mass distribution.
Data set [8] deals with the molecule itself. As to the kind of experiment: crystal structure; ComEABs crystals, 22% PEG 500, 0.1 M succinate pH 5.5, 20 °C; 3.20 Å.
Data set [9] has as its target T1, ComEAGs wild-type. Description: EMSA; 0.5 uM DNA, 1 mM MgCl2; cooperative; MW-AUC: 10 mM Tris pH 8, 100 mM KCl, 20 C; EMSA: 10 mM Tris pH 8, 100 mM KCl, 2.5% glycerol, 0.5 mM EDTA, 1 mM MgCl2, room temperature 15 min, 8% native gel in. The note with it: protein: recombinant; blunt.

The term stoichiometry N denotes a count of units in the complex or per binding partner. Consider “ComEAGs (ComEA from Geobacillus stearothermophilus, codons 60-207) (domain or fragment)”, for which the Kd in [1] turned out to be 33.8 µM. Further, in data set [2], the Kd was in the range of 10 to 160 µM and the stoichiometry N was 2. “ComEAGs-OD (oligomerization domain of ComEAGs alone, codons 60-122) (domain or fragment)” came in with a stoichiometry N in [3] of 2.

B1: EAGs40bp (dsDNA)
DNA 1: CGTTAGCACTGTGAATATCACTACAGCAACCTTAGAATCG
DNA 2: CGATTCTAAGGTTGCTGTAGTGATATTCACAGTGCTAACG
As to B1, in the data set with ComEAGs wild-type [4], the binding result is “binds”.

B2: ComEA from Geobacillus stearothermophilus, residues 60-207 (domain or fragment)
chain: T1 sequence
notes: ComEA, Geobacillus stearothermophilus (ATCC 7953), codons 60-207 (without the N-terminal transmembrane region); also called ComEAGs; wild-type ComEAGs; source: E. coli BL21(DE3), purified (His-60 Ni resin, Source 15Q, Hitrap Heparin, Superdex200); not shown: His-Sumo, N-terminal, cleaved
One may read the koff as the first-order rate constant of dissociation. In data set [5], B2 showed a koff of 5.27e-05 s⁻¹.

B3: EAGs14bp (dsDNA)
DNA 1: GTAGGACCATCTGC
DNA 2: GCAGATGGTCCTAC
Take B3: the binding result with ComEAGs wild-type [6] was “binds”.

B4: ComEAGs oligomerization domain alone, residues 60-122 (domain or fragment, Geobacillus stearothermophilus)
chain: ASKTAVVDVKGAVANPGVYEVAADARVRDAIALAGGLTDEADETKVNLAAKVHDEMMIYVPKK
notes: ComEA, Geobacillus stearothermophilus (ATCC 7953), codons 60-122 (oligomerization domain); also called ComEAGs-OD; ComEA-OD; source: E. coli BL21(DE3), purified by the same protocol as wild-type ComEAGs; not shown: His-Sumo, N-terminal, cleaved
As for B4, in data set [7], the “stoichiometry N” value was 4 and > 4.

B5: ComEABs (ComEA from Bacillus subtilis, codons 58-205) (domain or fragment, B. subtilis strain 168, UniProt P39694 58-205, looked up)
chain: SNETIVIDIKGAVQHPGVYEMRTGDRVSQAIEKAGGTSEQADEAQVNLAEILQDGTVVYIPKKGEETAVQQGGGGSVQSDGGKGALVNINTATLEELQGISGVGPSKAEAIIAYREENGRFQTIEDITKVSGIGEKSFEKIKSSITVK
notes: ComEA, Bacillus subtilis strain 168, codons 58-205 (lacks the N-terminal transmembrane region); source: E. coli BL21, purified (His-60 resin, Source 15Q, Superdex200); not shown: His6, C-terminal, kept
As for B5, the binding result in data set [8] is on record as “binds”.

B6: EAGs30bp (dsDNA)
DNA 1: GCACTGTGAATATCACTACAGCAACCTTAG
DNA 2: CTAAGGTTGCTGTAGTGATATTCACAGTGC
B6: the binding result with ComEAGs wild-type [9] was “binds”.

Values taken from article PMC9747964 (Nature Communications, 2022).
